According to publication PMC12262204:
Like-named read-outs stand apart in the source and are kept apart here.

Tests used:
Experiment in all cases: BLI
[1] = target: T1, Biotin-CGRP(8-37)NH2[N31D/S34P/K35W/A36S] (human)
T1 sequence (P06881 90-119 with N31D S34P K35W A36S, looked up): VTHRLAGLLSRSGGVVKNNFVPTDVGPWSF

[2] = target: T1, Biotin-CGRP(8-37)NH2[N31D/S34P/K35W/A36S] (human); remark: listed apart in the source
[3] = target: biotin-CGRP(8-37)NH2 (human)

residence time [1]: 132 s
half-life [2]: 1.52 min
residence time [2]: 2.18 min
Kd [3]: 52.2 µM
koff [3]: 3.3 s⁻¹
kon [3]: 63300 M⁻¹ s⁻¹
Substance: RAMP1.24-111-(GS)5-CLR.29-134-H6 (CLR:RAMP1 ECD fusion protein) (from UniProt O60894 24-111; Q16602 29-134) (receptor)
